Measured values from patent publication US20220401560A1, “PEPTIDE ENCAPSULATING FERRITIN” (Ajinomoto Co., Inc., priority 2019, published 2022).
Positions of bridges follow the written chain, without caps; N, C: chain ends. No end group written: not given here. *: point of attachment. Pent4ynoyl = C#CCCC(=O)*

Experiments:
ferritin (FTH) [1] = molecular target: T1, ferritin (FTH) (Homo sapiens, UniProt P02794); experiment: Search for peptides capable of being encapsulated into ferritin by disassembly/reassembly process, LC-MS detection; parameters: key to encapsulation: “A” represents peptides with three times of confirmation of encapsulation.; “B” represents peptides with two times of confirmation of encapsulation or less.; “C” represents peptides without confirmation of encapsulation; settings: for MS peak of peptide derived from peptide encapsulating ferritin: FTH, disassembly/reassembly process performed; for encapsulation: encapsulation into ferritin (FTH), three trials
T1 construct: made in house; host or cells: Escherichia coli BL21 (DE3), plasmid pET20-FTH
Protocol: Peptides capable of being encapsulated into ferritin by disassembly/reassembly process were searched. In the disassembly/reassembly process, 1 mL of a 50 mM glycine hydrochloride buffer (pH 2.3) containing FTH at a final concentration of 5 mg/mL and the peptide at a final concentration of 0.5 mM, was left to stand at room temperature for 15 minutes. Next, 310 μL of a 1 M Tris hydrochloride buffer (pH 9.0) was added for neutralization, and left to stand at room temperature for 3 hours. After the standing, 1.2 mL of a 50 mM Tris hydrochloride buffer (pH 8.0) was added, and centrifuged (at 15,000 rpm for one minute). Thereafter, 2.5 mL of its supernatant was injected into a desalting column PD-10 (Sephadex G-25 filled product, GE Healthcare Inc.) equilibrated with a 50 mM Tris hydrochloride buffer (pH 8) for the elusion with 3.0 mL of a 50 mM Tris hydrochloride buffer (pH 8.0) to separate non-encapsulated peptides and ferritin. A whole amount (3.0 mL) of the resulting solution was concentrated to 0.1 mL by centrifugal ultrafiltration using Vivaspin 20-100K (GE Healthcare Inc.). The operation of adding 10 mL of a 50 mM Tris hydrochloride buffer to the concentrated solution and then concentrating was repeated twice to remove peptides that were not removed by PD-10 to obtain 0.1 mL of a sample solution. For the LC-MS analysis, 50 p1 of a 1 M glycine hydrochloride buffer (pH 2.3) was added to 50 μL of the sample solution and then the resulting solution was left to stand at room temperature for 15 minutes. To the solution, 900 μL of ethanol was added. Next, the resulting solution was stirred vigorously and then centrifuged (at 15,000 rpm for five minutes) for collection of the supernatant. The supernatant was analyzed using LCMS-2020 (Shimadzu Corporation) as LC-MS, Inertsil (Registered trademark) as a column, ODS-3, particle diameter of 2 μm and 2.1 mm×50 mm (GL science). Thereafter, 10 μL of the sample injected into the column was eluded at a flow rate of 0.2 mL/min for 10 minutes such that a mixing ratio of a solution A (0.1% formic acid/99.9% acetonitrile) and a solution B (50% water/50% acetonitrile) is from 95:5 to 95:5.
The encapsulation of the peptide into ferritin was studied by comparing in terms of the amount of the peptide detected by LC/MS between the sample prepared by encapsulating the peptide into ferritin at the disassembly/reassembly process and the sample prepared simply by mixing ferritin with the peptide. For example, ClAc-FHC was eluted at a retention time of 0.8 minute. […] However, the peak was not observed for the sample prepared by simply mixing the peptide with ferritin without performing the disassembly/reassembly process (FIG. 12B). FIG. 13 to FIG. 17 illustrate LC-MS results for FTH in which the peptide was encapsulated at the disassembly/reassembly process.

ferritin (FTH) [2] = molecular target: T1, ferritin (FTH); experiment: Encapsulation of fluorescent dye-modified peptide into FTH, column chromatography with absorbance at 480 nm and LC-MS; settings: absorbance at 480 nm at elution position of 24-mer FTH; LC-MS
Protocol: Of a 50 mM glycine hydrochloride buffer (pH 2.3) that contains FTH (chemical formula weight: 509,421) at a final concentration of 5 mg/mL and the peptide at a final concentration of 0.5 mM, 0.5 mL was left to stand at room temperature for 15 minutes. Next, 50 μL of a 1 M Tris hydrochloride buffer (pH 9.0) was added for neutralization, and the resulting solution was left to stand at room temperature for 3 hours. After the standing, the resulting solution was centrifuged (at 15,000 rpm for one minute). Then, the supernatant was collected and the volume was increased up to 3 mL with a 10 mM Tris hydrochloride buffer (pH 8). The resulting solution was injected into the HiPrep 26/60 Sephacryl S-300 HR column (GE Healthcare Inc.) equilibrated with a 10 mM Tris-HCl buffer (pH 8.0) to separate and purify 24-mer FTH by size at a flow rate of 1.3 mL/minute. The purified ferritin was analyzed using a HiPrep 16/60 Sephacryl S-300 HR column (GE Healthcare Inc.) equilibrated with a 10 mM Tris-HCl buffer (pH 8.0) at a flow rate of 0.5 mL/minute and confirmed as the absorbance at 480 nm unobservable from FTH only, at the same position as that of a peak of FTH.
The solution containing the FTH was concentrated to 0.25 mL by centrifugal ultrafiltration using Vivaspin 20-100K (GE Healthcare Inc.). […] For the LC-MS analysis, 50 μL of a 1 M glycine hydrochloride buffer (pH 2.3) was added to 50 μL of the sample solution and then the resulting solution was left to stand at room temperature for 15 minutes. To the solution 900 μL of ethanol was added. Next, the resulting solution was stirred vigorously and then centrifuged (at 15,000 rpm for five minutes) to collect its supernatant. The supernatant was analyzed using LCMS-2020 (Shimadzu Corporation) as LC-MS, inertsil (Registered trademark) ODS-3 with a particle diameter of 2 μm and 2.1 mm×50 mm (GL science) as a column. Into the column, 10 μL of the sample was injected, and eluded at a flow rate of 0.2 mL/min for 10 minutes such that a mixing ratio of a solution A (0.1% formic acid/99.9% acetonitrile) and a solution B (50% water/50% acetonitrile) was from 95:5 to 95:5. The concentration of the contained protein was determined using a protein assay CBB solution (Nacalai Tesque, Inc.) in terms of bovine albumin as a standard. The concentration of the encapsulated peptide was determined based on the absorbance at 480 nm of the fluorescent dye FAM to which PKC-F is modified.
First, the construction of FTH encapsulating two kinds of fluorescent dye-modified peptides [5(6)—FAM-[…] (SEQ ID NO: 10), FAM-SV40, chemical formula weight 1,516, and 5(6)—FAM-[…] […] (SEQ ID NO: 11), FAN-Np, chemical formula weight 384] was attempted. 0.5 mL of a 50 mM glycine hydrochloride buffer (pH 2.3) that contains FTH (chemical formula weight 509,421) at a final concentration of 5 mg/mL and a peptide at a final concentration of 0.5 mM, was left to stand at room temperature for 15 minutes. Next, 50 μL of a 1 M Tris hydrochloride buffer (pH 9.0) was added for neutralization, and the resulting solution was left to stand at room temperature for 3 hours. […] The absorbance at […] was confirmed at the same elusion position as that of ferritin 24-mer, for ferritin that was used for the operation to encapsulate FAM-SV40 therein. […] Next, the peptide amount of FAM-SV40 encapsulated in purified ferritin was quantified based on the 480 nm absorbance and by CBB staining with use of ferritin-amount-albumin as a standard.

T1 sequence (P02794 whole entry): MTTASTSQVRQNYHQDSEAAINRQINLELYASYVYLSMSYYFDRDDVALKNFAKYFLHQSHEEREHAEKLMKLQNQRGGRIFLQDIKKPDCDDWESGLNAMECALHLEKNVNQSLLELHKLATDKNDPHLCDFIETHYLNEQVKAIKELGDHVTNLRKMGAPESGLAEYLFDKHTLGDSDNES

Row | MS peak of peptide derived from peptide encapsulating ferritin (ferritin (FTH) [1]) | encapsulation of peptide in FTH (ferritin (FTH) [2]) | Substance | encapsulation (ferritin (FTH) [1])
1 | presence |  | GIRLRGGIRLRGGIRLRG (SEQ ID NO: 22) (Synthetic amino acid sequence of the peptide GRP78-3 which is to be tested for encapsulation with ferritin) [linear peptide] | B (“B” represents peptides with two times of confirmation of encapsulation or less.)
2 | presence |  | SPRGDLAVLGHKY (SEQ ID NO: 18) (Synthetic amino acid sequence of the peptide avb6 which is to be tested for encapsulation with ferritin) [ανβ6, linear peptide] | B (“B” represents peptides with two times of confirmation of encapsulation or less.)
3 | presence |  | QMARIPKRLARHQMAR (SEQ ID NO: 21) (Synthetic amino acid sequence of the peptide NS which is to be tested for encapsulation with ferritin) [linear peptide] | A (“A” represents peptides with three times of confirmation of encapsulation.)
4 | presence |  | GGKRPARGGKRPAR (SEQ ID NO: 19) (Synthetic amino acid sequence of the peptide NRP-1-2 which is to be tested for encapsulation with ferritin) [linear peptide] | A (“A” represents peptides with three times of confirmation of encapsulation.)
5 | presence |  | VLWLKNR (SEQ ID NO: 14) (Synthetic amino acid sequence of the peptide FGF3-FP16 which is to be tested for encapsulation with ferritin) [linear peptide] | B (“B” represents peptides with two times of confirmation of encapsulation or less.)

Continued, substance first:

Row | Substance | MS peak of peptide derived from peptide encapsulating ferritin (ferritin (FTH) [1]) | encapsulation of peptide in FTH (ferritin (FTH) [2]) | encapsulation (ferritin (FTH) [1])
6 | 5(6)-FAM-CGGKRPAAIK KAGQAKKKKG (SEQ ID NO: 11) ({5(6)‑FAM}-CGGKRPAAIKKAGQAKKKKG) [FAM-Np, fluorescent dye-modified peptide, linear] |  | not encapsulated | C
7 | cyclo (AS (D-Pro) PTWI (Dab) (Orn) (D-Dab)(Dab)W(Dab)(Dab)) [Murepavadin, reference compound] | presence |  | A (“A” represents peptides with three times of confirmation of encapsulation.)
8 | EEEEEEEEEE (SEQ ID NO: 16) [Ex10] | presence |  | A (“A” represents peptides with three times of confirmation of encapsulation.)
9 | cyclo(RGDFV) (SEQ ID NO: 13) [cyloRGDfV, reference compound] | presence |  | B (“B” represents peptides with two times of confirmation of encapsulation or less.)
10 | FBP0032: cyclic peptide with disulfide bond, X is 4-pentynoic acid (Pent4ynoyl-GQKGCKKTPKLASLSCTGF; disulfide 5-16 (inferred)) | presence |  | A (“A” represents peptides with three times of confirmation of encapsulation.)
11 | HTSD (SEQ ID NO: 12) [EGFR] | presence |  | A (“A” represents peptides with three times of confirmation of encapsulation.)
12 | RRRRRRRRRR (SEQ ID NO: 17) [Rx10] |  |  | C
13 | cyclo(PPYVPLII) (SEQ ID NO: 15) (cyclic; Synthetic amino acid sequence of the peptide Hymenistatin I which is to be tested for encapsulation with ferritin) [cyclic peptide purchased from Sigma-Aldrich, reference compound] | presence |  | B (“B” represents peptides with two times of confirmation of encapsulation or less.)
14 | FBP0033: cyclic peptide with disulfide bond, X is 4-pentynoic acid (Pent4ynoyl-GRPGCGPRKPRTPKKCGSH; disulfide 5-16 (inferred)) | presence |  | A (“A” represents peptides with three times of confirmation of encapsulation.)
15 | Pakti-L1: cyclic peptide, cysteine sulfur bonded to acetyl group at N-terminus ({CH2CO}-YILVRNRLLRVDCG; thioether N-13) | presence |  | B (“B” represents peptides with two times of confirmation of encapsulation or less.)
